Laboratory results taken from the nanobody polyreactivity screen of Harvey et al. (2022).

Assay: yeast display, Sf9 membrane polyspecificity reagent, FACS + sequencing; frameworks hold sequencing errors
How it was run: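 Synthetic nanobody libraries on Saccharomyces cerevisiae BJ5465 were galactose-induced for 36–48 hours, stained 1 hour at 4 °C with 10% biotinylated, detergent-solubilized Sf9 membrane reagent and enriched on streptavidin microbeads. FACS then separated cells into low and high (top ~1%) gates by anti-HA (expression) and streptavidin (reagent binding) fluorescence. Genes were colony-PCR amplified, MiSeq 2 × 250 sequenced and CDR-length filtered. A clone's polyreactivity label is that of its gate of origin.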

| Sequence | polyreactivity (PSR sort gate) |
| --- | --- |
| QVQLVESGGGLVQAGGSLRLSCAASGTTFGYYAMGSYRQPPGKDREFVAAISSSGGSTYYPDSVKGRFTISRDNAKNTVYLQMNSLKPEDTAVYYCARVGFPGFYWGQGTEVTVSS | high polyreactivity |
| QVQLVESGGGLVQAGGSLRLSCAASGRTFSHNAMGWYRQAPGKERELVATISWNGGRTYYADSVKGRFTISRDNAKNTVYLQMNSLKPEDTAVYYCADDRIWVLYRTYFSKYGYWGQGTQVTVSS | high polyreactivity |
| QVQLVESGGGLVQAGGSLRLSCAASGITFYFYAMGWYRQAPGKERELVAAISGSSGSTYYADSVKGRFTISRDNAKNTVYLQMNSLKPEDTAVYYCAAYNRWSGGFEYWGQGTQVTVSS | high polyreactivity |
| QVQLVESGGGLVQAGGSLRLSCAASGRTFRVYAIGWYRQAPGKEREFVATISVRGGSTYYADSVKGRFTISRDNAKNTVYLQMNSLKPEDTAVYYCAADSYPYVYALYDSWGLGTQVTVSS | low polyreactivity |
| QVQLVESGGGLVQAGGSLRLSCAASGGIFVTYAMVWYRQAPGKERELVAAITSGGTTYYADSVKGRFTISRDNAKNTVYIQMNSLTPEDTAVYYCAARYYPGYYYPPLDYWGQGSQVTVSS | low polyreactivity |
| QVQLVDSGGGLVQAGGSLRLTCAASGSIFNYYTMGWSRQAPGKERELVAAISSSGGSTYYADSVKGRFTISRDNAKNTVYLQMNSLKPVDTAVYFCNTYPPAHREYESWGQGTQLTVSS | high polyreactivity |
| QVQLVESGGGLVQAGGSLRLSCAASGRIFPHYAMGWFRQAPGKERELVAAISSGGRTNYADSVKGRFTISRDNAKNTVYLQMNSLKREDSAVYYCAAEAPFYVIGRRYRGYDYWGQGTQVTVSS | high polyreactivity |
| QVQLVESGGGLVQAGGSLRLSCAASGFTFYRNAMGWYRHAPGTERELVAAISWSGDSTYYADSVKGRFTISRDNAKNTVYLQMNSLKPEDTAVYYCAKERYFYYPWVTTYTSNYWGQGTQVTVSS | low polyreactivity |
| QVQLVESGGGLVQAGGSLRLSCAASGRIFWAYAMGWYRQAPGKERELVAGITFTGGRTYYADSVKGRFTISRDNAKNTVYLQMNSLKPEDTAVYYCAAAGLDVGRKDRDGYWGQGTQVTVSS | low polyreactivity |
| QVQLVESGGGLVQAGGSLRLSCAASGSIFPYNAMGWYRQAPGKERELVAAISRSGGSTYYADSVKGRFTISRDNAKNTVYLQMNSLKPEDTAVYYCAAYSLYWRDDYWGQGTQVTVSS | high polyreactivity |
| QFQLVESGGGLVQAGGSLRLSCAASGSIFVTNAMGWYRQAPGKERELVAAISSGGNTNYADSVKGRFTISRDNAKNTVYLQMNSLKPEDTAVYYCAKDPDKVDFVDMDYWGQGTQVTVSS | low polyreactivity |
| QVQLVESGGGLVQAGGSLRLTCAASGFTFFYNAMGWYRQAPGKERELVAAISRGGGRTYYADSVKGRFTISRDNAKNTVYLQMNSLKPEDTAVYYCAKEYGGTRGRKLDYWGQGTQVTVSS | high polyreactivity |
| QVQLVESGGGLVQAGGSLRLSCAASGRIFAGYAMGWYRQAPGKERELLATISSGGSTYFAHSVKGRFTISRDNAKNTVYLQMNSLKPEDTAVYYCSAEYGTRQYSCYYKLFNYWGQGTQVTVSS | low polyreactivity |
| QVQLVESGGGLVQAGGSLRLSCAASGRTFKPYAMGWYRQAPGKERELVAVISSTGSTKYADSVKGRFTISRDNAKNTVYLQMNSLKPEDTAVYYCAAQNTYIYYWGQGTQVTVSS | high polyreactivity |
| QVQHLESGGGLVQAGGSLRLSCAASGFTFGYYAMGWYRQAPGKEREFVATISYGTGSTYYADSVKGRFTISRDNAKNTVYLQMNSLKPEDTAVYYCNADTWPGEYNGYFSGAYDYWGQGTQVTVSS | high polyreactivity |
| QVHLVESGGALVQAGGSLRLSCAASGRTFGIYAMGWYRQAPGKERELVATISWRGGSTYYADSVKGRFPISRDNAKNTVYLQMNSLKPEDTAVYYCAAGYYPYWGQGTQVTVSS | low polyreactivity |

| Sequence | polyreactivity (PSR sort gate) |
| --- | --- |
| QVQLVESGGGLVQAGGSLRLSCAASGSTFGWYAMGLYRQAPGKERELVATISSGGSTYYADSVKGRFTISRDNAKNTVYLQMNSLKPEDTAVYYCAADYWTYEYPGYDYWGQGTQVTVSS | low polyreactivity |
| QVQLVESGGGSVQAGGSLRLSCAASGSIFRANAMGWYRQAPGKERELVAAITANGGSTYYADSVKGRFTISRDNAKNTVYLQMNSLKPEDTAVYYCNNARVRGARFDYWGQGTQVTVSS | high polyreactivity |
| QVQLVESGGGLVQAGGSLRLSCAASGITFDGNAMGWYRQAPGKERELVAGISGSGGGTYYADSVKGRFTISRDNAKNTVYLQMNSLKPEDTAVYYCAADTSTSHAYDYWGQGTQVTVSS | low polyreactivity |
| QVQLVESGGGLVQAGGSLRLSCASSGSTFWVNVMGWYRQAPGKERELVATITSGGRTNYADSVKGRFTISRDNAKNTVYLQMNCLKPEDTAVYYCAADLKRGYLMDYWGQGTQVTVSS | low polyreactivity |
| QVQLVESGGGLVQAGGSLRLSCAACGRTFVSYAMGWYRQAPGKERELVAAITNAGSTYYADSVKGRFTISRDNAKNTVYLQMNSLKPEDTAVYYCAATYWDYWGYGYDYWGQGTQVTVSS | high polyreactivity |
| QVQLVESGGGLVQAGGSLRLSCSASGSIFGSYAMGGYRQEPGNERELVAAISWRGGNTYYADSVKGRFTISRDNAKNTVYLQMNSLSPEDTAVYYCAAVAYSYGSYRRYYYWGLGTQVTVSS | high polyreactivity |
| QVQLVESGGGLVQAGGSLRLSCAASGRIFYHNAMGWYRQAPGKEREFVAAINWRGGNTYYADSVKGRFTISRDNAKITVYLQMNSLKPEDTAVYYCNALYKRYTDYDYWGQGTQVTVSS | high polyreactivity |
| LVQLVESGGGLVQAGGSLRLSCAASGSTFGYNAMGWYRQAPGKERELVAAISRGAGSTYYADSVKGRFTITRDNAKYTVYLQMNCLKPEDTAVYYCAKERPRGAPAYYSRIYDYWGQGTQVTVSS | high polyreactivity |
| QVQLVESGGGLVQAGGSLRLSCAASGRILGKYAMGWYRQAPGKERELVAAIRLRGGSPYYADSVKGRFTISRDNAKNTVYLQMNSLKPDDTAVYYCAARYWDRSQAYNYWGQGTQVTVSS | high polyreactivity |
| QVQLVESGGGLVQAGGSLRLSCAASGSIFKYNDMGWYRQAPGKERELVAAITSDSSTYYADSVKGRFTISRDNAKNTVYLQMNSLKPVDTAVYYCAADTTGFTTYAYWYDYWGQGTQVTVSS | low polyreactivity |
| QVQLVESGGGLVQAGGSLRVSCAASGFIFRRYAMGWYRQAPGKERELVAAIRTNSGSTYYADSVKGRFTISRDNAKNTVYLQMNSLKPEDTAVYYCATGQVYRTVSWLYNYWGQGTQVTVSS | high polyreactivity |
| QVQLVESVGGLVQAGGSLRLSCAASGRTFGRYAMGWYRQAPGKERELVAGISRSGDSTHYADSVKGRFTISRDNAKNTVYLQMNSLKPEDTAVYYCNKETPTNGARKYEYWGQGTQVTVSS | low polyreactivity |
| QVQLVESGGGLVQAGGSLRLSCAASGSTFRSYARGWYRQAPGKERELVAVISKRGGSTYYADSVKGRFTISRDNAKNTVYLQMNSLKPEDTAVYYCAADVYRYYAPNDYYWGQGTQVTVSS | high polyreactivity |
| QVQLVESGGGLVQAGGSLRLSCAASGSIFDGYAMGWYTQAPGKERELVADINNGADTYYADSVKGRFTISRDNAKNTVYLQMYSLKPEDTAVYYCAARYGTDTDIQNVARYDYWGQGTQVTVSS | low polyreactivity |
| QVQLVESGGGLVQAGGSLRLSCAAAGRTFYPYVMGWYRQAPGKERELVATISWSGGSTYYADSVKGRFTISRDNAKNSVYLQMNSLKPEDTAVYYCAALWPYGYWGQGTQVTVSS | low polyreactivity |
| QVQLVESGGGLVQAGGSLRLSCAASGFIFGSNAMGWYRQAPGKERELVAAISRSGGSTYYADSVKGRFTISRDNAKNTVYLQMNSLKPEDTAVYYCNVVLWPFVYSWWSYDYWGQGTQVTVSS | high polyreactivity |
